Data as given in paper PMC7201283, “Crystal structure of the NS3-like helicase from Alongshan virus” (IUCrJ, 2020).

Test system: O=c1ccn([C@@H]2O[C@H](COP(=O)(O)OP(=O)(O)OP(=O)(O)O)[C@@H](O)[C@H]2O)c(=O)[nH]1
Assay: purified protein
Details: 20 mM Tris-HCl pH 8.0, 5 mM DTT, 10 mM MgCl2, 28°C, 16 nM enzyme, no RNA

ALSV NS3-Hel (Alongshan virus) was tested, and the Km was 185 ± 19 µM and the kcat was 0.85 ± 0.02 s⁻¹.
